Consider 4 molecules from article PMC3196576, “Probing the Functional Mechanism of Escherichia coli GroEL Using Circular Permutation” (PLoS ONE, 2011).

Series [1] deals with the molecule itself. Kind of series: SEC; gel filtration profiles observed during purification (AKTA FPLC, 4°C); data not shown. A general note: In gel filtration, larger molecules generally elute earlier.
For series [2], the target named is T1, GroEL R231W (E. coli, UniProt P0A6F5 1-548, R231W).
T1 construct: GroEL, Escherichia coli, with Arg231 replaced by tryptophan; also called RW; source: purified according to the protocol of Machida et al. [34]; copies: 14
Briefly: Proteinase K protection of BeFx football complexes, recovered by centrifugal concentration (100 kDa cutoff), SDS-PAGE; 0.5 µM GroEL 14-mer, 1.0 µM unfolded rhodanese, 1.1 µM GroES, 1 mM BeCl2, 10 mM NaF, 1 mM ATP; 30 mM Tris-HCl pH 7.2, 50 mM KCl, 10 mM Mg(CH3COO)2, 25°C; 1 µg/ml Proteinase K for 30 min. The settings on record: both partners purified.

B1: GroEL CP254 (other, E. coli)
chain: MAAAQYVEGEALATLVVNTMRGIVKVAAVKAPGFGDRRKAMLQDIATLTGGTVISEEIGMELEKATLEDLGQAKRVVINKDTTTIIDGVGEEAAIQGRVAQIRQQIEEATSDYDREKLQERVAKLAGGVAVIKVGAATEVEMKEKKARVEDALHATRAAVEEGVVAGGGVALIRVASKLADLRGQNEDQNVGIKVALRAMEAPLRQIVLNCGEEPSVVANTVKGGDGNYGYNAATEEYGNMIDMGILDPTKVTRSALQYAASVAGLMITTECMVTDLPKNDAADLGAAGGMGGMGGMGGMMVDAAKDVKFGNDARVKMLRGVNVLADAVKVTLGPKGRNVVLDKSFGAPTITKDGVSVAREIELEDKFENMGAQMVKEVASKANDAAGDGTTTATVLAQAIITEGLKAVAAGMNPMDLKRGIDKAVTAAVEELKALSVPCSDSKAIAQVGTISANSDETVGKLIAEAMDKVGKEGVITVEDGTGLQDELDVVEGMQFDRGYLSPYFINKPETGAVELESPFILLADKKISNIREMLPVLEAVAKAGKPLLIIAEDVAN
notes: start methionine and extraneous N-terminal residues (Met-Ala-Ala-Ala-Gln-Tyr); GroEL, E. coli, from Val254 to the original C-terminus; Val-Asp dipeptide linker (SalI site) joining the original C- and N-termini; GroEL, E. coli, from the original N-terminus minus the N-terminal methionine to Asp253 (Ala251-Glu252-Asp253); C-terminal residues after Asp253 (Val-Ala-Asn); Circular permutant; source: …
Turning to B1, in series [1], the “stoichiometry N” value was about 14.

B2: bovine rhodanese (enzyme, UniProt P00586 1-297, looked up)
chain: MVHQVLYRALVSTKWLAESVRAGKVGPGLRVLDASWYSPGTREARKEYLERHVPGASFFDIEECRDKASPYEVMLPSEAGFADYVGSLGISNDTHVVVYDGDDLGSFYAPRVWWMFRVFGHRTVSVLNGGFRNWLKEGHPVTSEPSRPEPAIFKATLNRSLLKTYEQVLENLESKRFQLVDSRAQGRYLGTQPEPDAVGLDSGHIRGSVNMPFMNFLTEDGFEKSPEELRAMFEAKKVDLTKPLIATCRKGVTACHIALAAYLCGKPDVAIYDGSWFEWFHRAPPETWVSQGKGGKA
notes: rhodanese (thiosulfate sulfurtransferase), bovine; Unfolded for 1 hr in 6 M guanidine hydrochloride at 25°C before it was added to GroEL; also called unfolded rhodanese; source: bought: Sigma
Turning to B2, in series [2], the binding result is “binds”.

B3: GroES (natural protein, E. coli, UniProt P0A6F9 1-97, looked up)
chain: MNIRPLHDRVIVKRKEVETKSAGGIVLTGSAAAKSTRGEVLAVGNGRILENGEVKPLDVKVGDIVIFNDGYGVKSEKIDNEEVLIMSESDILAIVEA
notes: GroES cochaperonin, Escherichia coli; 7-mer; also called cochaperonin GroES; co-chaperonin; source: purified according to Iwasa et al. [35], with an 80°C heat treatment
For B3, the binding result in series [2] was “binds”.

B4: GroEL CP209 (other, E. coli)
chain: METGAVELESPFILLADKKISNIREMLPVLEAVAKAGKPLLIIAEDVEGEALATLVVNTMRGIVKVAAVKAPGFGDRRKAMLQDIATLTGGTVISEEIGMELEKATLEDLGQAKRVVINKDTTTIIDGVGEEAAIQGRVAQIRQQIEEATSDYDREKLQERVAKLAGGVAVIKVGAATEVEMKEKKARVEDALHATRAAVEEGVVAGGGVALIRVASKLADLRGQNEDQNVGIKVALRAMEAPLRQIVLNCGEEPSVVANTVKGGDGNYGYNAATEEYGNMIDMGILDPTKVTRSALQYAASVAGLMITTECMVTDLPKNDAADLGAAGGMGGMGGMGGMMVDAAKDVKFGNDARVKMLRGVNVLADAVKVTLGPKGRNVVLDKSFGAPTITKDGVSVAREIELEDKFENMGAQMVKEVASKANDAAGDGTTTATVLAQAIITEGLKAVAAGMNPMDLKRGIDKAVTAAVEELKALSVPCSDSKAIAQVGTISANSDETVGKLIAEAMDKVGKEGVITVEDGTGLQDELDVVEGMQFDRGYLSPYFINKP
notes: start methionine from the vector-derived ATG; GroEL, E. coli, from Glu209 to the original C-terminus; Val-Asp dipeptide linker (SalI site) joining the original C- and N-termini; GroEL, E. coli, from the original N-terminus minus the N-terminal methionine to Pro208; Circular permutant; source: E. coli JM109, purified (protocol of Machida et al. [34]); copies: 14
As for B4, the “stoichiometry N” value in series [1] was about 14.

Broadly, the stoichiometry N is the number of molecules, sites or subunits per partner or assembly.
